In article PMC7588443 (Nature Communications, 2020):

B1: unnamed (parent)
chain 1: ECPDRWRAEIDLGLPPGVQVGDLLRNEQTMGSLRQVYLLAVQANSITDHLKRFDAVRVPESCRGVVEAQVAKLEAVRSVIWNTMISLAVSGIEMDENGLKALLDKQAGDSLALMEMEKVATALKMD
chain 2: MQKVSLRVTPRLVLEVNRHNAICVATNVPEFYNARGDLNIRDLRAHVKARMISSQFCGYVLVSLLDSEDQVDHLNIFPHVFSERMILYKPNNVNLMEMCALLSMIENAKSPSIGLCREVLGRLTLLHSKCNNLDSLFLYNGARTLLSTLVKYHDLEEGAATPGPWNEGLSLFKLHKELKRAPSEARDLMQSLFLTSGKMGCLARSPKDYCADLNKEEDANSGFTFNLFYQDSLLTKHFQCQTVLQTLRRKCLGSDTVSKIIP

Variants of: B1
Assay: BLI
Settings: with partner chain of the complex shown; 10 μg ml−1 His-tagged BBRF2Δ; BSRF1Δ(M63D) at 500, 250, 125, 62.5, 31.3, 15.6 nM

| Variant | Kd |
| --- | --- |
| chain 1 ECPDRWRAEIDLGLPPGVQVGDLLRNEQTDGSLRQVYLLAVQANSITDHLKRFDAVRVPESCRGVVEAQVAKLEAVRSVIWNTMISLAVSGIEMDENGLKALLDKQAGDSLALMEMEKVATALKMD [chain 1 M30D] | 126 nM |

Same assay, conditions: with partner chain of the complex shown; 10 μg ml−1 His-tagged BBRF2Δ(F209K); BSRF1Δ at 500, 250, 125, 62.5, 31.3, 15.6 nM

| Variant | Kd |
| --- | --- |
| chain 2 MQKVSLRVTPRLVLEVNRHNAICVATNVPEFYNARGDLNIRDLRAHVKARMISSQFCGYVLVSLLDSEDQVDHLNIFPHVFSERMILYKPNNVNLMEMCALLSMIENAKSPSIGLCREVLGRLTLLHSKCNNLDSLFLYNGARTLLSTLVKYHDLEEGAATPGPWNEGLSLFKLHKELKRAPSEARDLMQSLKLTSGKMGCLARSPKDYCADLNKEEDANSGFTFNLFYQDSLLTKHFQCQTVLQTLRRKCLGSDTVSKIIP [chain 2 F193K] | 53.9 nM |

Same assay, conditions: with partner chain of the complex shown; 10 μg ml−1 His-tagged BBRF2Δ; BSRF1Δ(N59K) at 500, 250, 125, 62.5, 31.3 nM

| Variant | Kd |
| --- | --- |
| chain 1 ECPDRWRAEIDLGLPPGVQVGDLLRKEQTMGSLRQVYLLAVQANSITDHLKRFDAVRVPESCRGVVEAQVAKLEAVRSVIWNTMISLAVSGIEMDENGLKALLDKQAGDSLALMEMEKVATALKMD [chain 1 N26K] | 59.9 nM |
